Data reported in the supplement of paper PMC9170038.

Tested on: MS2 coat protein
Experiment: apparent KD of MS2 coat protein; designed switch direction (-1 OFF switch, 1 ON switch): 1; higher = weaker reporter binding
In short: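 The buffer was Tris-HCl pH 7.5 with KCl, MgCl2, BSA, DTT, tRNA and Tween-20. In it, SNAP-549-labelled MS2 coat protein was titrated in doubling steps from 0.7 or 1.5 nM to 3 µM over chip-bound RNA switches transcribed by stalled E. coli RNA polymerase on Illumina chips. Apparent KD is the per-design median over clusters of curve fits to normalised fluorescence.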

[1] = Eterna round: R95, input ligand: FMN 200 uM
[2] = Eterna round: R95, input ligand: microRNA oligo, concentration not stated
[3] = Eterna round: R95, input ligand: none
[4] = input ligand: microRNA oligo, concentration not stated

Sequence | apparent KD of MS2 coat protein [1] [nM] | apparent KD of MS2 coat protein [2] [nM] | apparent KD of MS2 coat protein [3] [nM] | apparent KD of MS2 coat protein (input ligand: FMN 200 uM) [nM] | apparent KD of MS2 coat protein [4] [nM] | apparent KD of MS2 coat protein (input ligand: none) [nM]
GGAGCCGGCACCGAGGAUAUUCAUAUUAAAACAUGAGGAUCACCCAUGUAGAGGAGAACCUCUUGGGAGAAGGCGGAUCGGCUCG [Xeonanis - 26] (puzzle: Same State 2) | 289 | 723 | 1090 |  |  | 
AUAAUACAUGAGGAUCACCCAUGUCAACAAAGUCGAGGAUAUGGGCAAAUAAAAUAAGAACCAGAAGGCGAAUAAU [salish99_ss1_r3_046] (puzzle: Same State 1) | 34.2 | 359 | 240 |  |  | 
AUAAACAGGCUAGGAUAUCCGGAAACUACAGGACACGACCCUGUGGACAUGAGGAUCACCCAUGUGGAGAAGGAGCCACAUGAA [Onvete] (Eterna round: R96, puzzle: Same State NG 2) |  |  |  | 31.4 | 223 | 145
GUAGCAUACCGAGGAUAUUCAUUACAUGAGGAUCACCCAUGUUUAUUAUAGGCCAAAAGGCCUUGGGAGAAGGCGGAAUGCUAC [Xeonanis - 20 Mod12] (Eterna round: R96, puzzle: Same State NG 2) |  |  |  | 8.36 | 8.47 | 10.7
AACGUGGGAGCACAGGAUAUGCAUUGCUCCACAUGAGGAUCACCCAUGUAGGCAAAUAGGGAGCAGCAGAAGGGUGGUCCGACAC [Orraonrexe] (puzzle: Same State 2) | 17.3 | 8.24 | 21.8 |  |  | 
UUACUCAUGUAAGGAUAUGCAGCCGUUUCGGCUGCAGAAGGUACUAUAAUACAUGAGGAUCACCCAUGUCUUUUUAAUUUUUAC [JL SSNG1 1.28] (Eterna round: R96, puzzle: Same State NG 1) |  |  |  | 87.5 | 24.4 | 54.2
ACUUGCUUUUUGCUCAUUUUAUGUCCGAAACAUGAGGAUCACCCAUGUGUAGAUUAUGUGUUGUUUUUGAUACGUGA [JR_SHM208A_Sub067] (puzzle: Sensor for hsa-mir-208a) | 24.6 | 20.7 | 26.3 |  |  | 
AAUUAAGAUUGAGGAUAUCACGUCGAAUAGACGUGAGAAGGCGAUCAUAACAUGAGGAUCACCCAUGUAUUACAUGAAUUAAUU [SSNG1/5-B1] (Eterna round: R96, puzzle: Same State NG 1) |  |  |  | 30.2 | 31.9 | 32.3
AUGACAUGCACAGGAUAUUAGGCGCAGUACAGAUAAGAAGGGUGGAUCAGCAUACAUGAGGAUCACCCAUGUUGUUGUAACAUG [Same State 1 S2] (Eterna round: R96, puzzle: Same State NG 1) |  |  |  |  | 252 | 
UUAUUAAUUACAUGAGGAUCACCCAUGUUUUUUUGUCAGAGACAGGAUAUAGAAGUCUCGUUUUACUAGAAGGGUCAUUAUAUG [JR_SSNG3_Sub014] (Eterna round: R96, puzzle: Same State NG 3) |  |  |  | 25.6 | 19 | 29.7
UUAACAUGAGGAUCACCCAUGUAUAGGGAGUUAACAAUUGGACAGGAUAUUGAAGAUGUAGAUAGCAAGAAGGGUCGGUAGUCU [JR_SSNG3_Sub001] (Eterna round: R96, puzzle: Same State NG 3) |  |  |  |  | 30 | 
UCUUGGUUUUUGCUCGUUUUUUGUGUUGAACAUGAGGAUCACCCAUGUAUUGUACGGUCCGGUUUGAUAAUGGUCCG [JMF 13] (puzzle: Sensor for hsa-mir-208a) | 26 | 15.5 | 27.1 |  |  | 
CGUCCAGCCUGAGCUGGACAAAAGCAUGUACAUGAGGAUCACCCAUGUUCAUGUACAAGCUUUUUGCUCGUCUUAGC [salish99_208a_r3_075] (puzzle: Sensor for hsa-mir-208a) | 730 | 14.3 | 860 |  |  | 
GACAGGCAAGCUUUUUUCUCGUAGUGUAAACAUGAGGAUCACCCAUGUGCUCGCCCUAGAUCUUUGGAUCGCAGAAA [Ceedes] (puzzle: Sensor for hsa-mir-208a) | 39.5 | 22.6 | 50.1 |  |  | 
GGGAGAGUUACAGGAUAUGGUGAGGAUUACCCACUAGAAGGGUAAACAUGUGAAUCGGACAUGAGGAUCACCCAUGUUGGGCGU (Eterna round: R96, puzzle: Same State NG 1) |  |  |  | 162 | 160 | 203
GUGGUCAGACAUGAGGAUCACCCAUGUGGAAUAAAUAAGGGACAGGAUAUGGAAUAUAGGAUAUACCAGAAGGGUUGGUUGGUG (Eterna round: R96, puzzle: Same State NG 3) |  |  |  | 86.2 | 68.7 | 82
AAAAUAAAUACAGGAUAUAGCCGCCUAAAGCGGCUAGAAGGGUAGAUCGAAAUACAUGAGGAUCACCCAUGUGCACGUAAGUGC [Eresesgeti] (Eterna round: R96, puzzle: Same State NG 1) |  |  |  | 775 | 527 | 1350
GCUAGAAAUAAAGCCAACAUGAGGAUCACCCAUGUAUGUUGGUAGGAUAUCGUUUGCAAAGCAAACGAGAAGGGCUAAUCUAGC [Mat - Same State NG 3 - JL Mod - D65] (Eterna round: R96, puzzle: Same State NG 3) |  |  |  | 76.4 | 63.8 | 69.8
GGUGGGUUGCUGCCGGCACAUGAGGAUCACCCAUGUUUUGGGAAGGAUAUGGUCCCUCUUUGGUGCCAGAAGGUCCCGUUGGUC [salish99_SSNG3_r04_715] (Eterna round: R96, puzzle: Same State NG 3) |  |  |  | 232 | 75.3 | 165
GGUAUCGGCACAGGAUAUGCUAUCCUUUGGGUAGCAGAAGGGUGAACAUGAGGAUCACCCAUGUAGGUGCCAGGGCGUGAGCCC [JL SSNG1 1.80] (Eterna round: R96, puzzle: Same State NG 1) |  |  |  | 213 | 56.4 | 149
UUAACAUGAGGAUCACCCAUGUAUGCGUAGCUUGCAUUUUGACAGGAUAUUGAAUAUCUAUAUAGCAAGAAGGGUCGUUAGUCU [JR_SSNG3_Sub008] (Eterna round: R96, puzzle: Same State NG 3) |  |  |  | 91.8 | 53.3 | 94.9
GGAGCCGGCCUAGGAUAUUUCAUAAUAAUACAUGAGGAUCACCCAUGUAGGCCAGAAGGCCUUGGGAAGAAGGAGGUCGGCUCC [Loop Effect - U26,U29] (Eterna round: R96, puzzle: Same State NG 2) |  |  |  | 14.1 | 26 | 43.2
GUAGCAUACCGAGGAUAUUCAUAAAAUAAAUAAACAUGAGGAUCACCCAUGUGGCGAAAGCCUUGGGAGAAGGCGGAAUGCUAC [Xeonanis - 20 Mod73] (Eterna round: R96, puzzle: Same State NG 2) |  |  |  | 20 | 370 | 359
